Assay results taken from patent publication US20130209439A1, “INHIBITORS OF PDE4 BINDING TO HSP20” (THE UNIVERSITY COURT OF THE UNIVERSITY OF GLASGOW, priority 2010, published 2013).

B3: His-HSP20 (purified recombinant His-tagged HSP20) (other)
chain: MEIPVPVQPSWLRRASAPLPGLSAPGRLFDQRFGEGLLEAELAALCPTTLAPYYLRAPSVALPVAQVPTDPGHFSVLLDVKHFSPEEIAVKVVGEHVEVHARHEERPDEHGFVAREFHRRYRLPPGVDPAAVTSALSPEGVLSIQAAPASAQAPPPAAAK
notes: Expressed in E. coli BL21 from pET28c and purified on nickel; also called HSP20-His; HSP20-6His; not shown: His tag from the pET28c vector

Key:
[1] = biological target: B3; assay: GST pull-down with purified recombinant proteins, immunoblot (data not shown)
Description: (§1) GST-PDE4 fusions proteins (500 μl of 2 μM) were mixed with 100 μl slurry of 50% (v/v) PBS-washed Glutathione beads for 2 h at 4° C. The beads were pelleted by centrifugation (14,000 g, 1 min) and washed twice with PBS containing 1% Triton X-100 before the addition of equal molar amounts of […] fusion protein in a 1 mL solution of PBS and Triton X-100 containing 5 mM dithiothreitol. After a 2 h incubation at 4° C. the beads were collected and washed three times with PBS and eluted in 100 μl of 2× Laemmli buffer. Eluates were resolved by SDS-PAGE, and the HSP20-His fusion proteins were detected by immunoblotting.
(§2) To evaluate further Hsp20 association with PDE4, we set out to determine whether they interacted directly. In order to do this we expressed Hsp20 and various PDE4 species in E. coli and purified them for use in pull-down assays. […] Additionally, we performed the converse experiment and first did pull-downs of HSP20, using its His tag, and then tested for co-purification of PDE4 species.

[2] = biological target: T1, HSP20, wild type, transfected into HEKB2 / HEK293 cells (human, UniProt O14558 1-160); assay: co-immunopurification with HSP20 from co-transfected HEKB2 cells, Western blot
T1 construct: Expressed from pcDNA6.2-Hsp20 (Gateway cloning into pcDNA6.2/V5-DEST); Immunopurified from cell lysates; also called HSP20 wt
T1 sequence: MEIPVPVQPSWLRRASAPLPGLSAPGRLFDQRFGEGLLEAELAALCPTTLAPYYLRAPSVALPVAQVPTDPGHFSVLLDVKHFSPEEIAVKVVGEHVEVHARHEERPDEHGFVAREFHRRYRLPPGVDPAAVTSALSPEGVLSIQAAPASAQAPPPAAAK

[3] = biological target: T2, GST alone (UniProt P08515 1-218 = GST); assay: GST pull-down with purified recombinant proteins, immunoblot
T2 construct: Control of the pull-down
Description: as §1, §2

T2 sequence (P08515 whole entry): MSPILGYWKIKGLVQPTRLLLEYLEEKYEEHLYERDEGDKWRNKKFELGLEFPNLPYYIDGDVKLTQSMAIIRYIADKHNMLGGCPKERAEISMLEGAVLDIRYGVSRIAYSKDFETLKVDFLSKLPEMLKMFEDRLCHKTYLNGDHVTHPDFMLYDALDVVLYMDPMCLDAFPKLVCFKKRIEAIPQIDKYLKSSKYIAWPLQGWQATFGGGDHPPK

B1: GST-PDE4D5 (enzyme)
chain: MAQQTSPDTLTVPEVDNPHCPNPWLNEDLVKSLRENLLQHEKSKTARKSVSPKLSPVISPRNSPRLLRRMLLSSNIPKQRRFTVAHTCFDVDNGTSAGRSPLDPMTSPGSGLILQANFVHSQRRESFLYRSDSDYDLSPKSMSRNSSIASDIHGDDLIVTPFAQVLASLRTVRNNFAALTNLQDRAPSKRSPMCNQPSINKATITEEAYQKLASETLEELDWCLDQLETLQTRHSVSEMASNKFKRMLNRELTHLSEMSRSGNQVSEFISNTFLDKQHEVEIPSPTQKEKEKKKRPMSQISGVKKLMHSSSLTNSSIPRFGVKTEQEDVLAKELEDVNKWGLHVFRIAELSGNRPLTVIMHTIFQERDLLKTFKIPVDTLITYLMTLEDHYHADVAYHNNIHAADVVQSTHVLLSTPALEAVFTDLEILAAIFASAIHDVDHPGVSNQFLINTNSELALMYNDSSVLENHHLAVGFKLLQEENCDIFQNLTKKQRQSLRKMVIDIVLATDMSKHMNLLADLKTMVETKKVTSSGVLLLDNYSDRIQVLQNMVHCADLSNPTKPLQLYRQWTDRIMEEFFRQGDRERERGMEISPMCDKHNASVEKSQVGFIDYIVHPLWETWADLVHPDAQDILDTLEDNREWYQSTIPQSPSPAPDDPEEGRQGQTEKFQFELTLEEDGESDTEKDSGSQVEEDTSCSDSKTLCTQDSESTEIPLDEQVEEEAVGEEEESQPEACVIDDRSPDT
notes: Expressed in E. coli and purified; Printed both GST-PDE4D5 and PDE4D5-GST; also called PDE4D5-GST; not shown: glutathione-S-transferase (GST) tag
B1: binds [1].

B2: PDE4D5 (transfected into HEKB2 / HEK293 cells) (enzyme)
chain: MAQQTSPDTLTVPEVDNPHCPNPWLNEDLVKSLRENLLQHEKSKTARKSVSPKLSPVISPRNSPRLLRRMLLSSNIPKQRRFTVAHTCFDVDNGTSAGRSPLDPMTSPGSGLILQANFVHSQRRESFLYRSDSDYDLSPKSMSRNSSIASDIHGDDLIVTPFAQVLASLRTVRNNFAALTNLQDRAPSKRSPMCNQPSINKATITEEAYQKLASETLEELDWCLDQLETLQTRHSVSEMASNKFKRMLNRELTHLSEMSRSGNQVSEFISNTFLDKQHEVEIPSPTQKEKEKKKRPMSQISGVKKLMHSSSLTNSSIPRFGVKTEQEDVLAKELEDVNKWGLHVFRIAELSGNRPLTVIMHTIFQERDLLKTFKIPVDTLITYLMTLEDHYHADVAYHNNIHAADVVQSTHVLLSTPALEAVFTDLEILAAIFASAIHDVDHPGVSNQFLINTNSELALMYNDSSVLENHHLAVGFKLLQEENCDIFQNLTKKQRQSLRKMVIDIVLATDMSKHMNLLADLKTMVETKKVTSSGVLLLDNYSDRIQVLQNMVHCADLSNPTKPLQLYRQWTDRIMEEFFRQGDRERERGMEISPMCDKHNASVEKSQVGFIDYIVHPLWETWADLVHPDAQDILDTLEDNREWYQSTIPQSPSPAPDDPEEGRQGQTEKFQFELTLEEDGESDTEKDSGSQVEEDTSCSDSKTLCTQDSESTEIPLDEQVEEEAVGEEEESQPEACVIDDRSPDT
B2: binds [2].

B3: no binding [3].
